Patent publication US20110283945A1

Target: trypsin activity of mated D. melanogaster female hemolymph
Assay: cell-based or functional assay

Substance: Bowman-Birk Inhibitor (BBI), trypsin/chymotrypsin inhibitor from soybeans (from UniProt P01055 40-110)
- reduced cleavage of the trypsin substrate N-Bnz-R-pna by mated female hemolymph: 78%
